Entries after “also recorded” stand apart in the source; their conditions may differ.
Legend:
[1] = tested on: polarized colon cancer T84 cells; test: Transepithelial electrical resistance (TEER) on polarized T84 cells; type: cell-based; settings: for Effect on the TEER: added for 1 hour to the apical side of transwell cultures
Experimental: FIG. 5A-5B. Correlation of reduced DSG2 binding with the ability to open epithelial junctions. FIG. 5A) Transepithelial electrical resistance (TEER) measured on polarized colon cancer T84 cells. Cells were cultured in transwell chambers until the TEER was constant, i.e. tight junctions had formed. A total of 5 μg of dimeric Ad3 fiber knobs in PBS was then added for 1 hour to the apical chamber. TEER was measured at the indicated time points. N=6. For time points 1.5 and 4 hours the difference between JO-1 vs D261N and N186D was significant (p<0.01). The arrows indicate the addition and removal of Ad3 fiber knobs. FIG. 5B) Enhancement of irinotecan therapy. A total of 4×10^6 A549 cells were injected subcutaneously into CB17-SCID/beige mice. Once the tumor reached a volume of ˜100 mm^3 (day 15 after implantation), the mice were injected intravenously with 2 mg/kg JO-1, E299V, N186D, or PBS, followed by an intravenous injection of irinotecan (37.5 mg/kg) one hour later. The treatment was repeated on day 25. N=5. […] The difference between “irinotecan” vs “JO-1+irinotecan” was significant (p<0.01) from day 20 on.
FIG. 9A1-9C. Analysis of dimeric Ad3 fiber knob mutants with increased affinity to DSG2. FIG. 9A1-9A2) Competition of Ad3-GFP virus infection on HeLa cells with dimeric affinity-enhanced mutant Y250F and JO-1 (dimeric wt Ad3 fiber knob). The experimental setting is as described for FIG. 3C. FIG. 9A1) percentage of GFP positive cells. FIG. 9A2) mean fluorescence intensity. N=3. The standard deviation was less than 10%. FIG. 9B1-9B2) Competition of Ad3-GFP virus infection on HeLa cells by Ad3 knob mutants with enhanced DSG2 binding but without dimerization domain. 1.5×10^5 HeLa cells were seeded into 24 well plates. Cells were incubated with the Ad3 knob mutants at the increasing concentrations for one hour at room temperature. 100 pfu/cell of Ad3GFP virus were then added and GFP expression was analyzed 18 hours later. FIG. 9B1) % of GFP+cells; FIG. 9B2) MFI. FIG. 9C) TEER on colon cancer T84 cells. The experimental setting was the same as for FIG. 5A. The TEER at 4 hours is shown. N=3.
Permeability assay. A total of 5×10^5 T84 cells were seeded in 12 mm transwell inserts (PET membrane, with 0.4 μm pore size (Corning, NY) and cultured for >14 days until transepithelial electrical resistance (TEER) was stable. Culture medium was changed every 2-3 days. The cells were exposed to DSG2 ligands (20 μg/ml) in adhesion medium (DMEM, 1% FBS, 2 mM MgCl2, 20 mM HEPES) for 15 min at room temperature and TEER was measured and calculated as described elsewhere (39).

TC1-hDSG2 tumors = test: PLD therapy with repeated injection in immunocompetent mice with TC1-hDSG2 tumors; type: in vivo, hDSG2 transgenic mice; settings: 2 mg/kg i.v. one hour before PLD 1.5 mg/kg; 3rd and 4th cycle, serum antibodies detectable
Experimental: FIG. 11A-11C. Pharmacokinetics, toxicity, and immunogenicity of JO-4. FIG. 11A) Serum clearance of JO-1 and JO-4. hDSG2 transgenic mice with subcutaneous TC1-hDSG2 tumors (˜600 mm^3) were intravenously injected with JO-1 or JO-4 (2 mg/kg) and serum samples were analyzed for by ELISA. N=3. Note that the y-axis has a log scale. FIG. 11B1) Lymphocyte and FIG. 11B2) platelet counts in hDSG2/TC1-hDSG2 transgenic mice after JO-1 or JO-4 injection. N=3. FIG. 11C) Therapy studies in immunocompetent hDSG2 transgenic mice with TC1-hDSG2 tumors. When tumors reached a volume of ˜80 mm^3, JO-1 or JO-4 (2 mg/kg) or PBS was injected intravenously followed one hour later by PLD/Doxil (i.v. 1.5 mg/kg). Treatment was repeated as indicated by arrows. Tumors were then allowed to re-grow for about two weeks. From day 15 on serum anti-JO-1/J)—4 antibodies were detectable by ELISA. Two more treatment cycles were performed at day 28 and day 35. […] The difference between JO-1/PLD vs JO-4/PLD is significant from day 31 on. N=10.
A549, MDA-MB-231, and ovc316 xenograft tumors were established by injection of the corresponding tumor cells into the mammary fat pad (1:1 with Matrigel) of CB17 mice. […] Tumor volumes were measured three times a week. […]
JO-1 and JO-4 are virus-derived proteins and immunogenic. In immunocompetent mice, serum IgG antibodies against these proteins can be detected by ELISA two weeks after injection (5). […]

Molecule	Effect on the TEER [1]	TEER compared to JO-1 ([1]; dimeric affinity-enhanced mutants, TEER at 4 hours)	Enhancing effect on PLD therapy after repeated treatment cycles (TC1-hDSG2 tumors)
D261N (protein) MKVSALKEKVSALKEKVSALKEKVSALKEKVSALKEGSGGGSGGGSGGGSNSIALKNNTLWTGPKPEANCIIEYGKQNPDSKLTLILVKNGGIVNGYVTLMGASDYVNTLFKNKNVSINVELYFDATGHILPDSSSLKTDLELKYKQTADFSARGFMPSTTAYPFVLPNAGTHNENYIFGQCYYKASNGALFPLEVTVMLNKRLPDSRTSYVMTFLWSLNAGLAPETTQATLITSPFTFSYIREDD	no effect		
JO-4 (protein) MKVSALKEKVSALKEKVSALKEKVSALKEKVSALKEGSGGGSGGGSGGGSNSIALKNNTLWTGPKPEANCIIEYGKQNPDSKLTLILVKNGGIVNGYVTLMGASDYVNTLFKNKNVSINVELYFDATGHILPDSSSLKTDLELKYKQTADFSARGFMPSTTAYPFVLPNAGTHNENFIFGQCYYKASDGALFPLEVTVMLNKRLPDSRTSYVMTFLWSLNAGLAPETTQATLITSPFTFSYIREDD		significantly higher	significantly stronger; also recorded: continued to be effective
JO-1: dimeric protein that contains the wild-type Ad3 fiber knob and a self-dimerization domain (SEQ ID NO:27) (protein, listed as Homo sapiens, dimer) MKVSALKEKVSALKEKVSALKEKVSALKEKVSALKEGSGGGSGGGSGGGSNSIALKNNTLWTGPKPEANCIIEYGKQNPDSKLTLILVKNGGIVNGYVTLMGASDYVNTLFKNKNVSINVELYFDATGHILPDSSSLKTDLELKYKQTADFSARGFMPSTTAYPFVLPNAGTHNENYIFGQCYYKASDGALFPLEVTVMLNKRLPDSRTSYVMTFLWSLNAGLAPETTQATLITSPFTFSYIREDD	rapid decrease in the TEER		enhancing effect; also recorded: continued to be effective
